pKd: −log10 of the molar value.
Key:
Experiment in all cases: IEDB peptide-MHC binding, purified MHC/competitive/radioactivity; filed as Kd, often an IC50 or EC50 that approximates it; ≥ and ≤ were set here for values at or beyond the usual limits of such assays
HLA-A*02:02 = target: HLA-A*02:02
HLA-A*02:03 = target: HLA-A*02:03
HLA-A*02:06 = target: HLA-A*02:06
[1] = source organism: Vaccinia virus WR
[2] = source organism: Dengue virus 3 Martinique/1243/1999
[3] = source organism: Lymphocytic choriomeningitis virus (strain Armstrong)
[4] = source organism: SARS coronavirus Tor2
[5] = source organism: Mammarenavirus whitewaterense
[6] = source organism: Dengue virus 4 Philippines/H241/1956

| Sequence | pKd (HLA-A*02:02; [1]) | pKd (HLA-A*02:03; [1]) | pKd (HLA-A*02:06; [1]) | further results |
| --- | --- | --- | --- | --- |
| IIELPYVGDT | 4.86 | 5.35 | 4.77 |  |
| FVATFRDML | 5.63 | 6.69 | 6.31 |  |
| LMLVTPSMTM |  |  |  | pKd (HLA-A*02:06; [2]): 6.01 |
| ELIDVLKTRL | 6.58 | 6.93 | 5.70 |  |
| ALMDCIIFES |  |  |  | pKd (HLA-A*02:02; [3]): 8.67; pKd (HLA-A*02:03; [3]): 7.79; pKd (HLA-A*02:06; [3]): 7.89 |
| KIEDLINQLV | 7.06 | 7.15 | 6.84 |  |
| PASISSVLTI | 5.87 | 7.08 | 5.81 |  |
| VVHGYFTEV |  |  |  | pKd (HLA-A*02:02; [4]): 7.76; pKd (HLA-A*02:03; [4]): 8.49; pKd (HLA-A*02:06; [4]): 8.58 |
| IAVFDSKLI | 5.11 | 4.92 | 4.92 |  |
| TVIKTLLEV |  |  |  | pKd (HLA-A*02:02; [5]): 5.70; pKd (HLA-A*02:03; [5]): 7.28; pKd (HLA-A*02:06; [5]): 7.78 |
| IQKDINITHT | 5.87 | 6.47 | ≤ 4.21 |  |
| SMWALVISV |  |  |  | pKd (HLA-A*02:02; [4]): 8.21; pKd (HLA-A*02:03; [4]): 8.35; pKd (HLA-A*02:06; [4]): 9.10 |
| MLLNVQTLI | 9.77 | 9.60 | 9.66 |  |
| KILSDENYLL | 7.60 | 5.42 | 7.81 |  |
| LMDSIFVSTM | 8.44 | 8.09 | 6.21 |  |
| ALVLLILMTA |  |  |  | pKd (HLA-A*02:02; [4]): 7.17; pKd (HLA-A*02:03; [4]): 7.29; pKd (HLA-A*02:06; [4]): 7.21 |
| CTINVNSLAL | 6.31 | 5.98 | 6.67 |  |
| CTMERTNDL | 7.44 | 7.59 | 7.02 |  |
| DIPTFNSLNT | 5.69 | 4.78 | 7.34 |  |
| DIISSKQYPA | 6.26 | 5.61 | 5.51 |  |
| YMVTDKTAYI | 9.65 | 9.56 | 8.21 |  |
| SMYTRLRQDT | 5.18 | 5.94 | ≤ 4.37 |  |
| NASKTINALV | 6.12 | 6.56 | 5.49 |  |
| EIMDKEQLL | 6.74 | 6.37 | ≤ 4.58 |  |
| PLISILMIFI | 6.36 | 6.11 | 5.62 |  |
| DLEALKKETI |  |  |  | pKd (HLA-A*02:06; source organism: Homo sapiens): ≤ 4.01 |
| KVTGSYNLV | 7.18 | 7.37 | 6.71 |  |

| Sequence | pKd (HLA-A*02:02; [1]) | pKd (HLA-A*02:03; [1]) | pKd (HLA-A*02:06; [1]) | further results |
| --- | --- | --- | --- | --- |
| KIMEIVSHL | 7.10 | 7.99 | 7.53 |  |
| LLFQLCTFT |  |  |  | pKd (HLA-A*02:02; [4]): 7.65; pKd (HLA-A*02:03; [4]): 8.42; pKd (HLA-A*02:06; [4]): 7.95 |
| FLDWIKDIM | 9.11 | 6.53 | 6.79 |  |
| KLRDSYTQV |  |  |  | pKd (HLA-A*02:03; source organism: Dengue virus 1 Nauru/West Pac/1974): 7.80 |
| SLDQTHIKTI | 5.84 | 7.84 | 5.61 |  |
| GLIAIVMVTI |  |  |  | pKd (HLA-A*02:02; [4]): 8.12; pKd (HLA-A*02:03; [4]): 7.72; pKd (HLA-A*02:06; [4]): 6.86 |
| LISFFGLFDI | 7.12 | 6.97 | 6.77 |  |
| VVYHDDDNTT | 5.73 | 4.90 | 5.41 |  |
| ELAAHQKKIL |  |  |  | pKd (HLA-A*02:03; source organism: Homo sapiens): 4.72 |
| MIHKTYIDV | 5.85 | 7.82 | 6.90 |  |
| NQLDSSNKSM | 5.75 | ≤ 4.52 | 6.20 |  |
| TVDFTDCRTI | ≤ 4.50 | 4.98 | 4.97 |  |
| NAILHNIYRL | 5.25 | 4.99 | 6.24 |  |
| LLPLTSLVI | 5.62 | 6.21 | 5.84 |  |
| KVDNFTMGV |  |  |  | pKd (HLA-A*02:06; [2]): 8.37 |
| EAAAATCALV | 5.74 | 6.61 | 7.22 |  |
| TQHGTILIKV |  |  |  | pKd (HLA-A*02:06; [2]): 6.28 |
| NIPELKHGLL | 5.64 | 5.57 | 5.91 |  |
| SLTQVKELGI | 8.01 | 7.12 | 6.80 |  |
| IITILQDIV | 6.08 | 6.18 | 6.18 |  |
| RVILAGPIPV |  |  |  | pKd (HLA-A*02:03; [6]): 8.08; pKd (HLA-A*02:06; [6]): 7.47 |
| NTFVNFNSV | 5.30 | 7.00 | 9.46 |  |
| IVNSVLLFL |  |  |  | pKd (HLA-A*02:02; [4]): 8.15; pKd (HLA-A*02:03; [4]): 6.75; pKd (HLA-A*02:06; [4]): 7.52 |
| LALKNSQAEL | 6.13 | 6.48 | 5.90 |  |
| TLNTLITLI | 9.00 | 9.22 | 6.03 |  |
| TAIRAGYSIV | 5.17 | 7.14 | 5.07 |  |
| HTYHLENDKI | 5.75 | 4.86 | 5.70 |  |
